The values below come from the RNAGym collection of RNA variant scans (doi:10.7554/elife.90254).

B1: OR4K15 (parent)
chain: GUUAACGGUCAUAGGCCAUGGAAACUAGGAGCACCAUUUCGCUGCCAGUGAAGAAAUGAACAAAGAAAAUCUGGGCCAGGCAGGCAUCAAAAGAAAUAGUCUUGCGCUCAACCAGAAAGUCUGUAAUCAUUUUAAGGGUA

This data set covers variants of B1. Put plainly: self-cleavage, relative activity (ratio to wild type); higher = more cleavage; in vitro, sequencing; the parent is a self-cleaving ribozyme.
Turning to GUUAACGGUCAUAGGCCAUGGAAACUAUGAGCACCAUUUCGCUGCCAGUGAAGAAAUGAACAAAGAAAAUCUGGGCCAGGCAGGCAUCAAAAGAAAUAGUCUUGCGCUCAACCAGAAGGUCUGUAAUCAUUUUAAGGGUA, the self-cleavage came to 0.84.

Take GUUAACGGUCAUAGGCCAUGGAAACUAUGAGCACCAUUUCGCUGCCAGUGAAGAAAUGAACAAAGAAAAUCUGGGCCAGGCAGGCAUCAAAAGAAAUAGUCUUGCGCUCAACCAGAAUGUCUGUAAUCAUUUUAAGGGUA: the self-cleavage turned out to be 0.68.

As to GUUAACGGUCAUAGGCCAUGGAAACUAGAAGCACCAUUUCGCUGCCGGUGAAGAAAUGAACAAAGAAAAUCUGGGCCAGGCAGGCAUCAAAAGAAAUAGUCUUGCGCUCAACCAGAAAGUCUGUAAUCAUUUUAAGGGUA, the self-cleavage came out at 0.87.

On to GUUAACGGUCAUAGGCCAUGGAAACUAUGAGCACCAUUUCGCUGCCAGUGAAGAAAUGAACGAAGAAAAUCUGGGCCAGGCAGGCAUCAAAAGAAAUAGUCUUGCGCUCAACCAGAAAGUCUGUAAUCAUUUUAAGGGUA, for which the self-cleavage turned out to be 1.64.

For the variant GUUAACGGUCAUAGGCCAUGGAAACUAGAAGCACCAUUUCGCUGCCAGUGAAGAAAUGAACAAAGGAAAUCUGGGCCAGGCAGGCAUCAAAAGAAAUAGUCUUGCGCUCAACCAGAAAGUCUGUAAUCAUUUUAAGGGUA, the self-cleavage came to 1.59.

With GUUAACGGUCAUAGGCCAUGGAAACUAGAAGCACCAUUUCGCUGCCAGUGAAGAAAUGAACAAAGAAAAUCUGGGCCAGGCAGGCAUCAAAAGAAUUAGUCUUGCGCUCAACCAGAAAGUCUGUAAUCAUUUUAAGGGUA, the self-cleavage was determined as 1.27.

GUUAACGGUCAUAGGCCAUGGAAACUAUGAGCACCAUUUCGCUGCCAGUGAAGAAAUGAACAAAGAAAAUCUGGGCCAGGCAGGCAUCUAAAGAAAUAGUCUUGCGCUCAACCAGAAAGUCUGUAAUCAUUUUAAGGGUA: the self-cleavage is 2.26.

For GUUAACGGUCAUAGGCCAUGGAAACUAUGAGCACCAUUUCGCUGCCAGUGAGGAAAUGAACAAAGAAAAUCUGGGCCAGGCAGGCAUCAAAAGAAAUAGUCUUGCGCUCAACCAGAAAGUCUGUAAUCAUUUUAAGGGUA, the self-cleavage amounted to 1.37.

For the variant GUUAACGGUCAUAGGCCAUGGAAACUAGAAGCACCAUUUCGCUGCCAGUGAAGAAAUGAACAAAGAAAAUCUGGGCCAGGCAGGCGUCAAAAGAAAUAGUCUUGCGCUCAACCAGAAAGUCUGUAAUCAUUUUAAGGGUA, the self-cleavage came out at 1.65.

For the variant GUUAACGGUCAUAGGCCAUGGAAACUAUGAGCACCAUUUCGCUGCCAGUGAAGAAAUGAACAAAGAAAGUCUGGGCCAGGCAGGCAUCAAAAGAAAUAGUCUUGCGCUCAACCAGAAAGUCUGUAAUCAUUUUAAGGGUA, the self-cleavage is 1.57.

As for GUUAACGGUCAUAGGCCAUGGAAACUAGAAGCACCAUUUCGCUGCCAGUGAAGAAAUGAACAAAGAGAAUCUGGGCCAGGCAGGCAUCAAAAGAAAUAGUCUUGCGCUCAACCAGAAAGUCUGUAAUCAUUUUAAGGGUA, the self-cleavage is 1.29.

GUUAACGGUCAUAGGCCAUGGAAACUAGAAGCACCAUUUCGCUGCCAGUGAAGAAAUGAACAAAGAAAAUCUGGGCCAGGCAGGCAUCAAAAGAAAUAGUCUUGCGCUCAACCAGAAAGUCUGUAAUCAUUUUAAGGGUA: the self-cleavage came out at 1.82.

GUUAACGGUCAUAGGCCAUGGAAACUACGAGCACCAUUUCGCUGCCAGUGAAGAAAUGAACAAAGAAAAUCUGGGCCAGGCAGGCAUCAAAAGAAAUAGUCUUGCGCUCAACCAGAAAGUCUGUAAUCACUUUAAGGGUA: the self-cleavage is 0.64.

Take GUUAACGGUCAUAGGCCAUGGAAACUAGAAGCACCAUUUCGCUGCCAGUGAAGAAAUGAACAAAGAAAAUCUGGGCCUGGCAGGCAUCAAAAGAAAUAGUCUUGCGCUCAACCAGAAAGUCUGUAAUCAUUUUAAGGGUA: the self-cleavage was 0.14.

GUUAACGGUCAUAGGCCAUGGAAACUAGAAGCACCAUUUCGCUGCCAGUGAAGAAAUGAACAAAGAAAAUCUGGGCCCGGCAGGCAUCAAAAGAAAUAGUCUUGCGCUCAACCAGAAAGUCUGUAAUCAUUUUAAGGGUA: the self-cleavage was determined as 0.33.

As for GUUAACGGUCAUAGGCCAUGGAAACUAAGAGCACCAUUUCGCUGCCAGUGAAGAAAUGAACAAAGAAAAUCUGGGCCAGGCAGGCAUCAAAAGAAAUAGUCUUGCGCUCAACCAGAAAGUCUGCAAUCAUUUUAAGGGUA, the self-cleavage was 0.6.

Take GUUAACGGUCAUAGGCCAUGGAAACUAGAAGCACCAUUUCGCUGCCAGUGAAGAAAUGAACAAAGAAAAUCUGGGCCAGGCAGGCAUCAAAUGAAAUAGUCUUGCGCUCAACCAGAAAGUCUGUAAUCAUUUUAAGGGUA: the self-cleavage came out at 1.86.

GUUAACGGUCAUAGGCCAUGGAAACUAGAAGCACCAUUUCGCUGCCAGUGAAGAAAUGAACAAAGAAAAUCUGGGCCAGGCAGGCAUCAAAGGAAAUAGUCUUGCGCUCAACCAGAAAGUCUGUAAUCAUUUUAAGGGUA: the self-cleavage came to 1.16.

With GUUAACGGUCAUAGGCCAUGGAAACUAUGGGCACCAUUUCGCUGCCAGUGAAGAAAUGAACAAAGAAAAUCUGGGCCAGGCAGGCAUCAAAAGAAAUAGUCUUGCGCUCAACCAGAAAGUCUGUAAUCAUUUUAAGGGUA, the self-cleavage was determined as 1.48.

For the variant GUUAACGGUCAUAGGCCAUGGAAACUAGAAGCGCCAUUUCGCUGCCAGUGAAGAAAUGAACAAAGAAAAUCUGGGCCAGGCAGGCAUCAAAAGAAAUAGUCUUGCGCUCAACCAGAAAGUCUGUAAUCAUUUUAAGGGUA, the self-cleavage amounted to 0.88.

Regarding GUUAACGGUCAUAGGCCAUGGAAACUAUGAGCACCAUUUCGCUGCCAGUGAAGAAAUGAACAAAGAAAAUCUGGGCCAGGCAGGCAUCAAAAGAAAUAGUCUUGCGCUCAACCAGAAAGUCUGUAAUCAUUUUACGGGUA, the self-cleavage was 2.26.
